In the nanobody polyreactivity screen of Harvey et al. (2022):

Test: yeast display, Sf9 membrane polyspecificity reagent, FACS + sequencing; frameworks hold sequencing errors
How it was run: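 Using colony PCR, genes from sorted yeast display clones were amplified, then sequenced on MiSeq at 2 × 250 and filtered by CDR length. The clones had been stained with 10% biotinylated, detergent-solubilized Sf9 membrane reagent for 1 hour at 4 °C and sorted by FACS into low and high (top ~1%) gates on anti-HA and streptavidin fluorescence. Polyreactivity labels come from the gate of origin.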

Row | Sequence | polyreactivity (PSR sort gate)
1 | QVQLVESGGGLVQAGGSLRLSCAASGSTFSTYAMGWYRQAPGKERELVARITVSVGSTYYADSVKGRFTMSRDNAKNTVYLQMNSLKPEDTAVYYCAVGSDEVYFVGDYEYWGQGTQVTVSS | low polyreactivity
2 | QVQLVESGGGLVQAGGSLRLSCAASGSTFSVNAMGWYRQAPGKEREFVAAITGDGVTTYYADSVKGRFTISRDNAKNTVYLQMNSLKPEDTAVYYCAAEDIRQTTGYDYWGQGTQVTVSS | high polyreactivity
3 | QVQLVESGGGLVQAGGSLRLSCAASGSTFSVNAMGWYRQAPGKEREFVARITWRGGSTYYADSVKRRFTISRDNAKNTVYLPMNSLKPEDTAVYYCAATLRYWWRSSYEDYYWGQGTQVTVSS | low polyreactivity
4 | QVQLVESGGGLVQAGGSLRLSCAASGSTFSVYAMGWYRQAPGKERELVASISSSVGRTFYADSVKGRFTISRDNSKNTVYLQMNSLKPEDTAVYYCNAGVRYSGFDYWGQGTQVTVSS | high polyreactivity
5 | QVQLVESGGGLVQAGGSLRLSCAASGSTFSVYGMGWYRQGPGKERELVAAISGYGSRRYYADSLKGRFTISRDNAKNTVYLQMNSLKPEDTAVYYCAAVRRLLQGRTMYYWGQGTQVTVSS | high polyreactivity
6 | QVQLVESGGGLVQAGGSLRLSCAASGSTFSVYTMGWYRQAPGKERELVAAITSGGTYYADSVKGRFTISRDNAKNTVYLQMNSLKPEDTAVYYCAADVLSVGKHYDYWGQCTQVTVSS | low polyreactivity
7 | QVQLVESGGGLVQAGGSLRLSCAASGSTFSVYTMGWYRQAPGKERELVATISGGGSTYYADSVKGRFTISRDNAKNTVYLQMNSLKPEDTAVYYCNAQGYGIFTSSLDYWGQGTQVTVSS | low polyreactivity
8 | QVQLVESGGGLVQAGGSLRLSCAASGSTFSWNTMGWYRQAPGKERELVAAISRRGGSTYYADSVKGRFTISRDNAKNTVYLQMNSLKPEDTAVYYCNAKYYYGHRPATAGRYYYWGQGTQVTVSS | high polyreactivity
9 | QVQLVESGGGLVQAGGSLRLSCAASGSTFSWYAMGWYRQAPGKERELVATITGSGGSTYYADSVKGRFTISRDNAKNTVYLQMNSLKPEDTAVYYCALDRGYTRWIASHSYQYDYWGQGTQETVSS | low polyreactivity
10 | QVQLVESGGGLVQAGGSLRLSCAASGSTFSWYSMGWYRQAPGKQRELVAAISSRGGRTYYADSVKGRFTISRDNAKNTVYLQMNSLKPDDTAVYFCAARSRRGEYDYWGQGTQVTVSS | high polyreactivity
11 | QVQLVESGGGLVQAGGSLRLSCAASGSTFSYNAMGWYRQAPGKERELVAAIRTSGGRTYYADSVKGRFTISRDNAKNTVYLQMNSLKPEDTAVYYCAKRWVYRYGYEYWGQGTQVTVSS | high polyreactivity
12 | QVQLVESGGGLVQAGGSLRLSCAASGSTFSYNAMGWYRQAPGKERELVAAISKSGGSTSYADSVKGRFTISRDNAKNTVYLQMNSQKPEDTAVYYCNARYSRKYGYWGQGTQVTVSS | high polyreactivity
13 | QVQLVESGGGLVQAGGSLRLSCAASGSTFSYNAMGWYRQAPGKERELVAAISRGDVSTYYADSVKGRFTISRDNAKNTVYLQMNSLKPEDTAVYYCAAYWYGSQYKWRYDYWGQGTQVTVSS | low polyreactivity
14 | QVQLVESGGGLVQAGGSLRLSCAASGSTFSYYAMGWYRQAPGKERELVAAITTSGGRTYYADSVKGRFTISRDNAKNTVYLQMNSLKPEDTAVYYCNARSGRLGDYWGQGTQVTVSS | high polyreactivity
15 | QVQLVESGGGLVQAGGSLRLSCAASGSTFSYYGMGWSRQAPGKERELVAAISWSGGSTYYADSVKGRFTISRDNAKNTVYLQMNSLKPEDTAVYYCARLDSAAEPRQYDYWGQGTQVTVSS | high polyreactivity
16 | QVQLVESGGGLVQAGGSLRLSCAASGSTFSYYPMGWYREAPGQERELVAAISSRGSSTYYADSVKGRFTISRDNAKNTVYLQMNSLKPEDTAVYYCNAERVVYKWYDYWGQVTQVTVSS | high polyreactivity

Row | Sequence | polyreactivity (PSR sort gate)
17 | QVQLVESGGGLVQAGGSLRLSCAASGSTFSYYTMGWYRQAPGKEREFVAAISNSGSRTYYADSVKGRFTISRDNAKNTVYLQMNSLKPEDTAVYYCNAAYGYRFPRDYWGQGTQVIVSS | high polyreactivity
18 | QVQLVESGGGLVQAGGSLRLSCAASGSTFTANALGWYRQAPGKERELVAAITKSGGDTYYADSVKGRFTISRDNAKNTVYLQMNSLKPEDTAVYYCAAESSYFVALTQFYTVEFYYWGQGTQVTVSS | low polyreactivity
19 | QVQLVESGGGLVQAGGSLRLSCAASGSTFTAYGMGWYRQAPGKERELVAAITWRGGRTYYADSVKGRFTISRDNAKNTVYLQMNSLKPEDTAVYYCAKGAVWRYTTKYGYDYWGQGTQVTVSS | high polyreactivity
20 | QVQLVESGGGLVQAGGSLRLSCAASGSTFTAYTMGWYRQAPGKERELVAAISKIGTRTYYADSVKGRFTISRDNAKNTVYLQMNSLKPEDTAVYYCATGRSRVYNGRGDYWGQGTQVTVSS | high polyreactivity
21 | QVQLVESGGGLVQAGGSLRLSCAASGSTFTDYAMGWYRQAPGKERELVAAIDSGGITNYADSVKGRFTISRDNAKNTVYLQMNSLKPEDTAVYYCAVEGEYLTPSGRYRLDYWGQGTQVTVSS | low polyreactivity
22 | QVQLVESGGGLVQAGGSLRLSCAASGSTFTDYDMGWYRQAPGKERELVAAITSGGSTNYADSVKGRFTISRDNAKNTVYLQMISLKPEDTAVYYCAAADADRKYDYWGQGTQVTVSS | low polyreactivity
23 | QVQLVESGGGLVQAGGSLRLSCAASGSTFTDYTMGWYRQAPGKERELVAVISQSGGSTYYADSVKGRFTISRDNAKNTVYLQMNSLKPEDTAVYYCAADPREDNQDRYYWGQGTQVTVSS | high polyreactivity
24 | QVQLVESGGGLVQAGGSLRLSCAASGSTFTFYAMGWYRQAPGKERELVATISSSGGSTYYADSVKGRFTISRDNAKNTVYLQMNSLKPEDTAVYYCTATTAPRDGKWQGGMDYWGQGTQVTVSS | low polyreactivity
25 | QVQLVESGGGLVQAGGSLRLSCAASGSTFTGNAMGWYRQAPGKERELVASIRSGATTYYADSVKGRFTISRDNAKNTVYLQMNSLKPEDTAVYYCAKRYLGRRGDVYYWGQGTQVTVSS | high polyreactivity
26 | QVQLVESGGGLVQAGGSLRLSCAASGSTFTGNDMGWYRQAPGKERELVASIRRGDRTYYADSVKGRFTISRDNAKNTVYLQMNSLKREDTAVYYCAKPVWWRVYRHGGRFGYWGQGTQVTVSS | low polyreactivity
27 | QVQLVESGGGLVQAGGSLRLSCAASGSTFTGYAMGWYRQAPGQERELVAAISRSGGSTYYADSVKGRFTISRDNAKNTVYLQMNSLKPEDTAVYYCNARGFTRYTVGRNYWGQGTQVTVSS | high polyreactivity
28 | QVQLVESGGGLVQAGGSLRLSCAASGSTFTINAKGWYRQAPGKERELVAAISWSGGTTYYADSVKGRFTISRDNAKNTVYLQMTSLKPEDTAVYYCAARSYYGYDYWGQGTQVTVSS | high polyreactivity
29 | QVQLVESGGGLVQAGGSLRLSCAASGSTFTINVMGWYRQAPGKERELVAAINGGGRTNYADSVKGRFTFSRDNAKNTVYLQMNSLKPEDTAVYYCAADGLSHVRQMDYWGQGTQVTVSS | low polyreactivity
30 | QVQLVESGGGLVQAGGSLRLSCAASGSTFTIYAMGWYRQAPGTERELVATIRAGGGRTSYADSVKGRFTISRDNAKNTVYLQMNSLKPEDTAVYYCAVYVRPTRYGYWGQGTQVTVSS | high polyreactivity
31 | QVQLVESGGGLVQAGGSLRLSCAASGSTFTIYAMGWYRQATGKERELVATIRAGGGRTSYADSVKGRFTISRDNAKNTVYLQMNSLKPEDTAVYYCAVYVRPTRYGYWGQGTQVTVSS | high polyreactivity
32 | QVQLVESGGGLVQAGGSLRLSCAASGSTFTKNAMGWYRPAPGKERELVAVISSGGSTNYADSVKGRFTISRDNAKNTVDLQMNSLKPEDTAVYYCAAEHYILYDYLWAYDYWGQGTQVTVSS | high polyreactivity
